According to patent US6759384 (AVENTIS PHARMACEUTICALS, dated 2004):
Starred links: 1 amine or outer side, 2 acyl side, 3 side chain; linkers in the order of their positions; H or OH if unused. Non-standard residues stand in square brackets, D forms with d. No end group written: not given here. *: point of attachment. (iBu)Y = N-alpha-isobutyl-tyrosine, CC(C)CN([C@@H](Cc1ccc(O[*:3])cc1)C(=O)[*:2])[*:1]; Orn(N^δ-C3H7N) = ornithine-derived dimethylamidinium (N-delta-C3H7N); Dab(N^γ-C3H7N) = Dab-derived dimethylamidinium (N-gamma-C3H7N); dTyr(Me) = COc1ccc(C[C@@H](N[*:1])C(=O)[*:2])cc1; dNMeY = CN[C@H](Cc1ccc(O)cc1)C(=O)O; Tos = Cc1ccc(S(=O)(=O)*)cc1; Tfa = O=C(C(F)(F)F)*; Sar = CNCC(=O)O

Target: human factor Xa (Enzyme Research Laboratories, Inc.) (human, UniProt P00742 41-179; P00742 235-488, limits assumed)
Sequence (P00742 41-179 limits assumed, chain 1 of 2): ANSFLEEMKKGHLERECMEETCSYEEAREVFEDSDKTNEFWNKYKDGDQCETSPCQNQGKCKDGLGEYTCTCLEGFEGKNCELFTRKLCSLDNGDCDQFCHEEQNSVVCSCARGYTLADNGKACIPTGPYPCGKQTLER
Sequence (P00742 235-488 limits assumed, chain 2 of 2): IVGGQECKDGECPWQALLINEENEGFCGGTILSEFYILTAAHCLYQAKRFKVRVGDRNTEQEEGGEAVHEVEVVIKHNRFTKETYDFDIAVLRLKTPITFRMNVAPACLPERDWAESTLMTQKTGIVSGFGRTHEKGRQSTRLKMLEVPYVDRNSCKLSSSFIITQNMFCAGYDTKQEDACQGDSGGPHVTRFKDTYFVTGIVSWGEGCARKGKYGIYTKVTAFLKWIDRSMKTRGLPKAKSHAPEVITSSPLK
Assay: chromogenic FXa inhibition
Method in brief: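 Human FXa (0.5 nM) preincubated 10 min with inhibitor in TBS-P (pH 7.8, 200 mM NaCl, PEG-8000), then S-2765 added (140 μM). Initial hydrolysis rate read at 405 nm, 25° C.; IC50 by linear regression of relative rate vs log concentration.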

Row | Binder | Ki [µM]
1 | [dW]LRLA-NH2 (N-terminus assumed; SMILES CC(C)C[C@H](NC(=O)[C@H](N)Cc1c[nH]c2ccccc12)C(=O)N[C@@H](CCCNC(=N)N)C(=O)N[C@@H](CC(C)C)C(=O)N[C@@H](C)C(N)=O) [w-L-R-L-A-NH2] | < 100
2 | XIRLP (N-(2-CF3-Bzl) on Y1; C-term NH2) [(2-CF3-Bzl)Y-I-R-L-P-NH2] | < 100
3 | [dTyr(Me)]IRLP-NH2 [y(Me)-I-R-L-P-NH2] | < 100
4 | XIRLP (N-(2-Me-nBu) on Y1; C-term NH2) [(2-Me-nBu)Y-I-R-L-P-NH2] | < 100
5 | YIRIYERE-NH2 [Y-I-R-I-Y-E-R-E-NH2] | < 100
6 | XIRLP (Y1=Y(3,5-Br); C-term NH2) [Y(3,5-Br)-I-R-L-P-NH2] | < 100
7 | YIRLAAFT-NH2 [Y-I-R-L-A-A-F-T-NH2] | < 100
8 | Tfa-[(iBu)Y]I[Dab(N^γ-C3H7N)]LP-NH2 [Tfa-(iBu)Y-I-Dab(N^γ-C3H7N)-L-P-NH2] | < 100
9 | {Ph‑CH═CH‑CO}-IRLA-NH2 [Ph-CH═CH-CO-I-R-L-A-NH2] | < 100
10 | YIRLMEMT-NH2 [Y-I-R-L-M-E-M-T-NH2] | < 100
11 | YIRVAQLY-NH2 [Y-I-R-V-A-Q-L-Y-NH2] | < 100
12 | XIRLP (N-term Tfa; Y1=Y(Me) O-methyl tyrosine; C-term NH2) [Tfa-Y(Me)I-R-L-P-NH2] | < 100
13 | WFREMGGGGG-NH2 [W-F-R-E-M-G-G-G-G-G-NH2] | < 100
14 | {Ph‑CH2CH2CH2‑CO}-IRLA-NH2 [Ph-CH2CH2CH2-CO-I-R-L-A-NH2] | < 100
15 | TFGYIRKA-NH2 [T-F-G-Y-I-R-K-A-NH2] | < 100
16 | YLRFP-NH2 [Y-L-R-F-P-NH2] | < 100
17 | XIRLP (N-term Ac; N-(2-Me-Bzl) on Y1; Y1=Y(SO3H); C-term NH2) [Ac-(2-Me-Bzl)Y(SO3H)-I-R-L-P-NH2] | < 100
18 | Tfa-[dY]IRLP-NH2 [Tfa-y-I-R-L-P-NH2] | < 100
19 | XIRLP (N-term Ac; N-(2Et-nBu) on Y1; C-term NH2) [Ac-(2Et-nBu)Y-I-R-L-P-NH2] | < 100
20 | XIRLP (N-term Ac; N-(2-CF3-Bzl) on Y1; C-term NH2) [Ac-(2-CF3-Bzl)Y-I-R-L-P-NH2] | < 100
21 | WIRNP-NH2 [W-I-R-N-P-NH2] | < 100
22 | WIRTP-NH2 [W-I-R-T-P-NH2] | < 100
23 | SYIRLP-NH2 [S-Y-I-R-L-P-NH2] | < 100
24 | YRYPRDRN-NH2 [Y-R-Y-P-R-D-R-N-NH2] | < 100
25 | [dNMeY]IRLP-NH2 [(Me)y-I-R-L-P-NH2] | < 100
26 | YIRYRNPI-NH2 [Y-I-R-Y-R-N-P-I-NH2] | < 100
27 | XIRLP (Y1=Y(3,5-I); C-term NH2) [Y(3,5-I)-I-R-L-P-NH2] | < 100

Row | Binder | Ki [µM]
28 | XIRLP (N-term Ac; N-(2,3-DiMe-nPentyl) on Y1; C-term NH2) [Ac-(2,3-DiMe-nPentyl)Y-I-R-L-P-NH2] | < 100
29 | XIRLP (N-term Ac; N-(2-CF3-Bzl) on Y1; Y1=Y(SO3H); C-term NH2) [Ac-(2-CF3-Bzl)Y(SO3H)-I-R-L-P-NH2] | < 100
30 | XIRLP (N-(2-Me-Bzl) on Y1; C-term NH2) [(2-Me-Bzl)Y-I-R-L-P-NH2] | < 100
31 | YIRLP-NH2 [Y-I-R-L-P-NH2] | < 100
32 | XIRLP (N-(2-Me-nPentyl) on Y1; C-term NH2) [(2-Me-nPentyl)Y-I-R-L-P-NH2] | < 100
33 | XIRLP (N-term Ac; N-(2-Me-nBu) on Y1; Y1=Y(SO3H); C-term NH2) [Ac-(2-Me-nBu)Y(SO3H)-I-R-L-P-NH2] | < 100
34 | Tos-GIRV[Sar]-NH2 (SMILES CC[C@H](C)[C@H](NC(=O)CNS(=O)(=O)c1ccc(C)cc1)C(=O)N[C@@H](CCCNC(=N)N)C(=O)N[C@H](C(=O)N(C)CC(N)=O)C(C)C) [Tos-G-I-R-V-Sar-NH2] | < 100
35 | XIRLP (N-term Ac; N-(2,3-DiMe-nPentyl) on Y1; Y1=Y(SO3H); C-term NH2) [Ac-(2,3-DiMe-nPentyl)Y(SO3H)-I-R-L-P-NH2] | < 100
36 | YIRL-NH2 [Y-I-R-L-NH2] | < 100
37 | YIRLTKMW-NH2 [Y-I-R-L-T-K-M-W-NH2] | < 100
38 | XIRLP (N-term Ac; N-(1,2,3,6-4H-Bzl) on Y1; C-term NH2) [Ac-(1,2,3,6-4H-Bzl)Y-I-R-L-P-NH2] | < 100
39 | {Ph‑CH2CH2CO}-IRLA-NH2 [Ph-CH2CH2CO-I-R-L-A-NH2] | < 100
40 | YIREFSDY-NH2 [Y-I-R-E-F-S-D-Y-NH2] | < 100
41 | XIRLP (N-(3,3-DiMe-nBu) on Y1; C-term NH2) [(3,3-DiMe-nBu)Y-I-R-L-P-NH2] | < 100
42 | YIRLPGLL-NH2 [Y-I-R-L-P-G-L-L-NH2] | < 100
43 | WLRLA-NH2 [W-L-R-L-A-NH2] | < 100
44 | XIRLP (N-term Ac; N-(2-Me-Bzl) on Y1; C-term NH2) [Ac-(2-Me-Bzl)Y-I-R-L-P-NH2] | < 100
45 | Tfa-[(iBu)Y]I[Orn(N^δ-C3H7N)]LP-NH2 [Tfa-(iBu)Y-I-Orn(N^δ-C3H7N)-L-P-NH2] | < 100
46 | YIRLAAF-NH2 [Y-I-R-L-A-A-F-NH2] | < 100
47 | XIRLP (N-(Chx-CH2) on Y1; C-term NH2) [(Chx-CH2)Y-I-R-L-P-NH2] | < 100
48 | WLRLAGGGGG-NH2 [W-L-R-L-A-G-G-G-G-G-NH2] | < 100
49 | WLRVAGGGGG-NH2 [W-L-R-V-A-G-G-G-G-G-NH2] | < 100
50 | YIRVMNHR-NH2 [Y-I-R-V-M-N-H-R-NH2] | < 100
51 | XIRLP (N-(2-Et-nBu) on Y1; C-term NH2) [(2-Et-nBu)Y-I-R-L-P-NH2] | < 100
52 | YIRLAA-NH2 [Y-I-R-L-A-A-NH2] | < 100
53 | Tfa-YIRLP-NH2 [Tfa-Y-I-R-L-P-NH2] | < 100
54 | XIRLP (N-term Ac; N-(1,2,3,6-4H-Bzl) on Y1; Y1=Y(SO3H); C-term NH2) [Ac-(1,2,3,6-4H-Bzl)Y(SO3H)-I-R-L-P-NH2] | < 100
